Laboratory results published in the DeepSol protein solubility set.

Assay: soluble on expression in E. coli; label from the status in PepcDB or PDB records

Row | Sequence | soluble on expression in E. coli
1 | MGSDKIHHHHHHMGRLFYKPENAWVGDLIPYYENGTYYGFYLHDPRIRDKEYAEDTTWHLIETKDFVNLDYKGESIARGGIHDANKNAYTGSVIKCEKDGLYHVFYTAYNEDFKLRGKTIQSVMQATGKNLENLETVKDFLFVSDGKQYEEFDWRDPFVFWNDEDQCYYMLLASRVTNRGDLRGGCIALCKSEDLINWTYEKPFYDPKMYITMECPELFKMGEYWYLVFSTFSDQFTTHYRISKNWNGPWEIPDDDVFDTRADYAIKTASDGKRRFAFGWIASKYGNTDFGPWEWGGTMNFHEIIQNSKNGELRIKAIPEVLDYFSKEIELKKETLYNCKMVQAQDGVSVESDTLGALLYPLEGDTFALDMVIKPERYHEFGIALHVDKELETGYFLRMNPKNQLVAWDMWPRGEQGRYQWQIKGDVPYQIETARKLPKAEEYRVHIIKEKDICVVYINDEIVLSTRMYNHKDGYAGIYVVQGDVKLIQYKEKRSE | not soluble
2 | MGSDKIHHHHHHMADKGIIFSDAMVRALLDGTKTQTRRLCAWPNNPNTPQLTYIVACDEPGWFGDEEGEVQFRVPHAQGDRLYVREAWSVRGTYTDVVEVGYRASANRSHTEFVEQWPVGDAIPGKGSWPQWPKYGPSIHMPRWASRMWLQITDVRVQRLQEISAADCRAEGLERGAVGGLLPAYRGSADLEWRIYADDAYHDLWDSLHGESGTRWADNPWVTVYTFDVHKGNIGKAARG | not soluble
3 | MSLDSSPHSQVNDPLESFNRQMWTINYDYLDPYVVRPVSLFYVGYVPKPVRSGIANFLSNLDEPASMVNNLLMGNGTKAVDHFNRFWINTSFGLLGLIDIASEAGIKKYDDKAFSDAVGHYGVGNGPYLMVPGYGPYTVREVTDVVDGMYFPLAYLNIWAGVGKWALEGMETRAALVSQEALLQDSPDPYSLARDAYLQRQAFKAEIQVDDYDPEEEEYLDEYLNEGEGHHHHHH | soluble
4 | MAHHHHHHMADNITNDKRDIFKIHKWSAVAAWSWDISVDNCAICRNHIMDLCIECQAKTTDHENDKDKKIDKEGCTVAWGVCNHAFHLHCISRWIKARQVCPLDNTTWEFQKATD | soluble
5 | MNYFVGNSLGVNLTGIEKAIINRLNLFKEMGRPAQCVFLSWNRYLYRNAQNYITSSDYINMYDFFQEATYLERNEPFDWLSYWTDECHYTLKHVENSHDFRIYDQERFLMYAHFQDPKYRILDYVNHFDSQRRKVKRDFYDVRGFLSCSRILVDKQQTLCEFFYNPEGDTKLEKYFSYKDGKPEVQKIIVYYANKQYFFNNETELGAFFIKQLYQHGDLFFSDRNVYTAPIFNLTPESIPVVAVLHSTHIKNIDALDSSPFKNVYKAMFENLSRYRAIIVSTEQQKLDVEKRINHTIPVVNIPVGYSETIDTPVQTLDQRSVKLISVARYSPEKQLHQQIELIKRLVSYVPKIELHMYGFGSESKKLNELIQKYGLENHVYLRGFLSNLDQEYSDAYLSLITSNMEGFSLALLESLAHGVPVISYDIKYGPNELITSDFNGYLITKNDEDALFDKVKYVIDHPEVQQRLSKGSLAKAQQYSKASLIKQWDQFVRLI | not soluble
6 | FLDKPTLLSPEELKAASRGNGEYALYYEGRNGWWQYDERTSRELEDAFSKGKRTSEMLIAGFLYVADLENMGQYRRNEHGRRRKIKRDIIDIPKKGV | soluble
7 | MLKYNIRGENIEVTEPIRDYVEKKIDKLERYFTETPDANVHVNLKVYSDKNAKVEVTIPLPNLVLRAEETSGDLYASIDLIVDKLERQIRKHKTKVNRKFRDKGAERDYFAYSDVNGSTPPEENEGDFDLEIVRTKQFSLKPMDSEEAVLQMNLLGHSFYVYTDAETNGTNIVYSRKDGKYGLIETNLEHHHHHH | soluble
8 | MRAERRKQLFRLLGDLPDRRPISVETLRIEEREENIVETLLLDLNGHEKAPAYFVKPKKTEGPCPAVLFQHSHGGQYDRGKSELIEGADYLKTPSFSDELTSLGYGVLAIDHWGFGDRRGKAESEIFKEMLLTGKVMWGMMIYDSLSALDYMQSRSDVQPDRIGTIGMSMGGLMAWWTAALDDRIKVCVDLCSQVDHHVLIKTQNLDRHGFYYYVPSLAKHFSASEIQSLIAPRPHLSLVGVHDRLTPAEGVDKIEKELTAVYAGQGAADCYRVVRSASGHFETAVIRHEAVRFLQKWLLEHHHHHH | not soluble
9 | MGSDKIHHHHHHMQSALWVSKTGLAAQDTKMTTIANNLANVNTTGFKRDRVAFNDLFYQVQRQPGGQVDELNQLPSGLQLGTGTRVAGTQKVFTTGDVHNTSQQLDLAIEGNGFFQVEEPNGDLAYTRDGQFYRSSEGMMVTSQGLPLVPNIVIPEDSTNITIATDGIVMATIAGDAEPQELGQITLINFTNPAGLEARGNNLYRETAASGVAVEGVAGDQALGGLRQGSLEGSNVNVVEEMVEMISTQRAYEMNAKVVSASDDMLKFLNQSV | not soluble
10 | MEESLKVGIAGLGTVGSSVVRILREKANSLTCQCGRSIKVVAVSARDKSRNRGIDLSDVKWFDSPVEMASSDEIDVFVELIGGESDVVYAAVKKALETGHHVVTANKALLAQHGGRLAVSAEKKGVFLHFEAAVAGGIPIIKVMRESLVSNHISRIYGILNGTCNYILTRMFTEGLSFKECLEDAQRLGYAEVDPTFDIGGNDTAHKLALLTSLAFGTAVSLDDIYVEGISNISQIDIRAADELGYRIKLLGVALKTETGIEQRVHPTMVPTSSMIAQIHGVTNALSIQSDLLGELLLSGPGAGGTATASAVIGDLADIAKARPGFQYAPVLGRPALGLAPHKKARISHHAGGYFIRLNVHDRAGVFAAVAKHMAGNHISLESIVQRSFVESQSVKTIILITHETTEVNVQQALAAIEKDGHLVAKSQFIRIEPMVLEHHHHHH | not soluble
11 | MKTPALPTVQSPLLSSLPGVKHAFFTRQGGVSKGIYDSLNVGRGSQDEPADVEENRARIARWFGGGPEDLNVCYQIHSTIAIVADGSWGDARPEGDAVVSKTPGVICGAMAADCAPVLLVDPEARIVAAAHAGWRGALDGVVQSAVDRMVELGASPANITGVVGPCIGPKSYEVGLEFLHRFEADCPGSGRFFKPGASEDKRFFDLPAFVLDRLATAGVERREWVGRDTRAEEEWFFSNRRAFLNNDGDYGRLLSAITLEA | soluble
12 | MERIDSHVSPRYAQIPTFMRLPHDPQPRGYDVVVIGAPYDGGTSYRPGARFGPQAIRSESGLIHGVGIDRGPGTFDLINCVDAGDINLTPFDMNIAIDTAQSHLSGLLKANAAFLMIGGDHSLTVAALRAVAEQHGPLAVVHLDAHSDTNPAFYGGRYHHGTPFRHGIDEKLIDPAAMVQIGIRGHNPKPDSLDYARGHGVRVVTADEFGELGVGGTADLIREKVGQRPVYVSVDIDVVDPAFAPGTGTPAPGGLLSREVLALLRCVGDLKPVGFDVMEVSPLYDHGGITSILATEIGAELLYQYARAHRTQL | soluble
13 | SLQVNTPQTEETANQAKRHVADYTMDGISATALDERGVTKYRFTGVHMNHYEDDLTYDVTFPALRIYAPDRPQVTARADLGKMNGEGSIIDLYDNAKVVRAQGPDLRQDPLMTADSTYFQVLLNDDVVRTDKPVELHRGPSVMNANGLVFNNVTRQVQLLGNVRGRIEGLGAPKQ | soluble
14 | MGSDKIHHHHHHMKWYADYLSIYDKPFTQAPQAVINQVKDKVRQLATHAPLVSVVAIAHNEEKRILSCLWSLCENQHNYPVEILVINNHSTDHTEEVLKELGVTYFNEYRKGPGFARQCGLNHARGKYHLCIDADTLYPPQYISTMIKVLQDKEVAGAYALWSFLPNEHHLGLFFYETLRDLYLKIQNLNRPELNVRGMAFAFHTETARKEGFRTDILRGEDGSLALALKKYGKLRFVTARKARVLTGYGTISADGSLFSSFKKRAIKGLRSFTALFYSKNNYEDEDSNLIK | not soluble
15 | MAHHHHHHMSITSRFIGGVKHLLKGGSMKYLAAGEPYCPFGEAFGLTILPEYILEDDASNLRKGYVDVYTRASDRIILNDGRFQLPPLPPASFMPLLERLEQDNVVPKSWLNNQTANLYEPGDFIRAHIDNLFVYDDIFAICSLGSNCLLRFVHVQNGEELDVMVPDRSVYIMSGPARYVYFHMVLPVEAQRFSLVFRRSIMESDGGFRPVKTPFKEIMPYRATQILNALYSKQVGGVRVSVDDDFLESADIGAFDTSRWVKRLHPLRDWSLLRQLDEDEARVEALREKRFIDVDFSWRYRELRSYYKAMEESLVSPHVAHVTPQA | soluble
16 | VRSMGFLHRACRAPSSLPAPLMARPGRSVLARPAATPPGPLCATTRPRPPQGNQPPASRISNFPPKRHKTRVLAAAEDEVSAAVAALISAHGRRHHSLNNQAAAFHGQFAQNLNVGAGSCASAETTADAPTQALLGPADRQRRQRRAVRQWLVRWAAHPGRATRGFHNHRQ | not soluble
17 | MNKQPGEQPVSCATSTGKSEKERQKDEPPRSRAEAGMMRGGGRLPQPRDTPMEVPNMIAAMPIQMTGFVDLAPHTILDVLAQTTSLMIVQCLEPLEIFTGIETPNRYVVHDMYCRPLLYCMERSSFFARQHQGSQRNFAMQCMDIFGAPVMNCFRSRPCCSCDDFLATEFLGQRIGMMKRECCDDNFHLVGTGSNEPLLVRSPGCACCGGTQVFPVMTYNGAKIGEIVRLYPGFMQEWYTDADTYIVHFPPDLPPILKILLISSTFLIDYTFFENRGGNQRGGYGHGGYGYY | not soluble
18 | MKDVVIVGALRTPIGCFRGALAGHSAVELGSLVVKALIERTGVPAYAVDEVILGQVLTAGAGQNPARQSAIKGGLPNSVSAITINDVCGSGLKALHLATQAIQCGEADIVIAGGQENMSRAPHVLTDSRTGAQLGNSQLVDSLVHDGLWDAFNDYHIGVTAENLAREYGISRQLQDAYALSSQQKARAAIDAGRFKDEIVPVMTQSNGQTLVVDTDEQPRTDASAEGLARLNPSFDSLGSVTAGNASSINDGAAAVMMMSEAKARALNLPVLARIRAFASVGVDPALMGIAPVYATRRCLERVGWQLAEVDLIEANEAFAAQALSVGKMLEWDERRVNVNGGAIALGHPIGASGCRILVSLVHEMVKRNARKGLATLCIGGGQGVALTIERDE | soluble
19 | MGSDKIHHHHHHMYVAVKGGETAIANAHSLLADRRRGDRSLPTMTVDQIVEQLTLAVGRVMAEASLYDRKLAALAIKQARGDMIEAIFLLRAYRTTLPRFGLSEPVDTGAMRIERRISATYKDLPGGQLLGPTFDYTHRLLDPSLLEEGDVEPPVQKIPTSEAAMRVSDILREEGLIEPDGDMPEDHLAGDITRQPIEFPMARDLRLQSLARGDEGFLLALAYSTQRGYGRSHPFAGEIRLGEVEVELDVPELGFAVSLGRIQVTECQMVNQFKGSSKAPPQFTRGYGLVFGQSERKAMAMSLVDRSLRAEELGEDITAPAQDQEFVLSHCDNVQATGFVEHLKLPHYVDFQAELDLVRRMRSEHEQARQQGLDLSEAAE | not soluble
20 | MAHHHHHHMRDPQKNCDDVVALRETLKERAGEMAKKMKENERELFLNPMPLGISCDGLPLDTDPEFHALEVARLRERQEESCDEAKIHKLNDALNERAEDLARAKLAADRQYLNPEHLRVAVDELPLNEDRNFILKEALRQEKLQNSRESAAAIAALENELNNMAKAMAAEMLAKQRPSYLAPEHHGRRIEDLPLNDSDDFLKKERRRRDLLKQPSWDIDVVAEIDKELSEMADAMARAMNAAERPQYMKASYYDKTLSELSLDTDSIIARLEAQRARLKRNPVRNAEAIHATEAAIISRAEALAKASINVGRGGVFSASQAECRSISLTSMEANSFNLLRRRGWSS | soluble
21 | MGSDKIHHHHHHMYKYKFTVFTPTYNRAHLLENLYNDLKAQTYDFNDFEWLIVDDGSSDSTKELVEKFISENKLNIRYIYKENGGKHTAINLGVKNADGELFFIVDSDDGLIKDSLEIANDEWDSLENKEGFSGVVGLCVYPSGDLIGTEMPEDKKICHFADLYFKYGVKGDKSIVFVTDELIKFPFPERKEVRFLPESVVWNEMSKYYKVICVNKPMIIRDYLDDGLTKNILSKNALRGRALEFLYLINQNTYPLSRYPYMWIKNYINLARYSLLSDSHYFGELRKVSDKLLYLALFPLGYYKYIGQRKLVSK | not soluble
